B1: Cytosolic arginine sensor for mTORC1 subunit 1 (Homo sapiens), Q8WTX7 (parent)
chain: MELHILEHRVRVLSVARPGLWLYTHPLIKLLFLPRRSRCKFFSLTETPEDYTLMVDEEGFKELPPSEFLQVAEATWLVLNVSSHSGAAVQAAGVTKIARSVIAPLAEHHVSVLMLSTYQTDFILVREQDLSVVIHTLAQEFDIYREVGGEPVPVTRDDSSNGFPRTQHGPSPTVHPIQSPQNRFCVLTLDPETLPAIATTLIDVLFYSHSTPKEAASSSPEPSSITFFAFSLIEGYISIVMDAETQKKFPSDLLLTSSSGELWRMVRIGGQPLGFDECGIVAQIAGPLAAADISAYYISTFNFDHALVPEDGIGSVIEVLQRRQEGLAS
partner: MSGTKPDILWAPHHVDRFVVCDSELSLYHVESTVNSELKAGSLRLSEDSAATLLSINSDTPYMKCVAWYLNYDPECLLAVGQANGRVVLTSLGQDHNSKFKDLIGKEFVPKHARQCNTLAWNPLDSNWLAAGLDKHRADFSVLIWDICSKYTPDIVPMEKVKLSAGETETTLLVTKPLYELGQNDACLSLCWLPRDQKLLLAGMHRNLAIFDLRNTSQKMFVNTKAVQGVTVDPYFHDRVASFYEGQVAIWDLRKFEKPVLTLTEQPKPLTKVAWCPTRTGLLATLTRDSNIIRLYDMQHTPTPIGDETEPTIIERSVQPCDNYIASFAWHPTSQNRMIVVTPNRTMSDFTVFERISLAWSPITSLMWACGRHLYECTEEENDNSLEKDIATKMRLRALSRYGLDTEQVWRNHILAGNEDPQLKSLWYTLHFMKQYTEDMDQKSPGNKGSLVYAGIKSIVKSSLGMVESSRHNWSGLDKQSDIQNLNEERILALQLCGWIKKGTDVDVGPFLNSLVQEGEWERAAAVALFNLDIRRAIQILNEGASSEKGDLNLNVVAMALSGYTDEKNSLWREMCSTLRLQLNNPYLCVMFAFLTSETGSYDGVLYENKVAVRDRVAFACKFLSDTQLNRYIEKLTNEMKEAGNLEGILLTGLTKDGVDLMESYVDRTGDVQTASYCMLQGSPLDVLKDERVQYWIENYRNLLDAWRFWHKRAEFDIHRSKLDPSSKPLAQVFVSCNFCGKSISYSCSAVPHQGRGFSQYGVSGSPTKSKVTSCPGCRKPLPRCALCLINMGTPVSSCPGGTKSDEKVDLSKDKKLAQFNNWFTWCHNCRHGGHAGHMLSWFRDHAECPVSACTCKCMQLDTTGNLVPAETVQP

This test covers variants of B1. The settings on record: with mios_human MIOS.
For I280A, the “effect of a mutation on the interaction” value was “disrupting interaction strength”.

Values taken from IntAct's records for PubMed 26972053.
